B1: Actin cytoskeleton-regulatory complex protein SLA1 (Saccharomyces cerevisiae), P32790 (parent)
chain: MTVFLGIYRAVYAYEPQTPEELAIQEDDLLYLLQKSDIDDWWTVKKRVIGSDSEEPVGLVPSTYIEEAPVLKKVRAIYDYEQVQNADEELTFHENDVFDVFDDKDADWLLVKSTVSNEFGFIPGNYVEPENGSTSKQEQAPAAAEAPAATPAAAPASAAVLPTNFLPPPQHNDRARMMQSKEDQAPDEDEEGPPPAMPARPTATTETTDATAAAVRSRTRLSYSDNDNDDEEDDYYYNSNSNNVGNHEYNTEYHSWNVTEIEGRKKKKAKLSIGNNKINFIPQKGTPHEWSIDKLVSYDNEKKHMFLEFVDPYRSLELHTGNTTTCEEIMNIIGEYKGASRDPGLREVEMASKSKKRGIVQYDFMAESQDELTIKSGDKVYILDDKKSKDWWMCQLVDSGKSGLVPAQFIEPVRDKKHTESTASGIIKSIKKNFTKSPSRSRSRSRSKSNANASWKDDELQNDVVGSAAGKRSRKSSLSSHKKNSSATKDFPNPKKSRLWVDRSGTFKVDAEFIGCAKGKIHLHKANGVKIAVAADKLSNEDLAYVEKITGFSLEKFKANDGSSSRGTDSRDSERERRRRLKEQEEKERDRRLKERELYELKKARELLDEERSRLQEKELPPIKPPRPTSTTSVPNTTSVPPAESSNNNNSSNKYDWFEFFLNCGVDVSNCQRYTINFDREQLTEDMMPDINNSMLRTLGLREGDIVRVMKHLDKKFGRENIASIPTNATGNMFSQPDGSLNVATSPETSLPQQLLPQTTSPAQTAPSTSAETDDAWTVKPASKSESNLLSKKSEFTGSMQDLLDLQPLEPKKAAASTPEPNLKDLEPVKTGGTTVPAAPVSSAPVSSAPAPLDPFKTGGNNILPLSTGFVMMPMITGGDMLPMQRTGGFVVPQTTFGMQSQVTGGILPVQKTGNGLIPISNTGGAMMPQTTFGAAATVLPLQKTGGGLIPIATTGGAQFPQTSFNVQGQQQLPTGSILPVQKTANGLISANTGVSMPTVQRTGGTMIPQTSFGVSQQLTGGAMMTQPQNTGSAMMPQTSFNAVPQITGGAMMPQTSFNALPQVTGGAMMPLQRTGGALNTFNTGGAMIPQTSFSSQAQNTGGFRPQSQFGLTLQKTGGIAPLNQNQFTGGAMNTLSTGGVLQQQQPQTMNTFNTGGVMQELQMMTTFNTGGAMQQPQMMNTFNTDGIMQQPQMMNTFNTGGAMQQPQQQALQNQPTGFGFGNGPQQSRQANIFNATASNPFGF
partner: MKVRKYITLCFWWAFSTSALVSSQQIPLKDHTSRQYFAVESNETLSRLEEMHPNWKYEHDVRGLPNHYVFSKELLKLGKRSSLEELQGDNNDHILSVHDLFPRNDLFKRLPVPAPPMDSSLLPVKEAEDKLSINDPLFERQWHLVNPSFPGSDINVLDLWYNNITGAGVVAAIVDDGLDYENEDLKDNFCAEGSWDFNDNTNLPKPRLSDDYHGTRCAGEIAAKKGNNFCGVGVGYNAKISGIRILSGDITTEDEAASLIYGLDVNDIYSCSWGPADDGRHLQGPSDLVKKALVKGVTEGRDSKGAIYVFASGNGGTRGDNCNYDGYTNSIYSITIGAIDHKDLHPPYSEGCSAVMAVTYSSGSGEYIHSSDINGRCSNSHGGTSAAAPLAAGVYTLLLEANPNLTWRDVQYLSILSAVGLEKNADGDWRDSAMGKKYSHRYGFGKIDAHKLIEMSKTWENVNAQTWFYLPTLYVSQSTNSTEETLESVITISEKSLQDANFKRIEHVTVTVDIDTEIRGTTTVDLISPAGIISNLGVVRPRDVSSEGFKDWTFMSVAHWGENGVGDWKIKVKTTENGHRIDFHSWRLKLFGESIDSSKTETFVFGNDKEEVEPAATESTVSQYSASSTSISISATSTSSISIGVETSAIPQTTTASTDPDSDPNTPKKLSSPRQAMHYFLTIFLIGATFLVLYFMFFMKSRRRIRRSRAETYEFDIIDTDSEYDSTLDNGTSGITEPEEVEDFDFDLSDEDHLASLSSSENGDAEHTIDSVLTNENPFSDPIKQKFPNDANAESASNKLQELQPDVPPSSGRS
B2: Kexin (Saccharomyces cerevisiae), P13134 (parent)
chain: B1 partner
partner: B1 chain

Variants of: B1
Conditions: with kex2_yeast KEX2, P13134

Variant	effect of a mutation on the interaction
K525A	disrupting interaction

Variants of: B1
Conditions: with kex2_yeast KEX2, P13134
Remark: another data set of the same source

Variant	effect of a mutation on the interaction
K525A	decreasing interaction

Variants of: B1
Conditions: with kex2_yeast KEX2, P13134
Remark: another data set of the same source

Variant	effect of a mutation on the interaction
V529E	disrupting interaction

Variants of: B1
Conditions: with kex2_yeast KEX2, P13134
Remark: another data set of the same source

Variant	effect of a mutation on the interaction
V529E	decreasing interaction

Variants of: B1
Conditions: with kex2_yeast KEX2, P13134
Remark: another data set of the same source

Variant	effect of a mutation on the interaction
I531E	disrupting interaction

Variants of: B1
Conditions: with kex2_yeast KEX2, P13134
Remark: another data set of the same source

Variant	effect of a mutation on the interaction
F507A	disrupting interaction

Variants of: B2
Conditions: with sla1_yeast SLA1, P32790

Variant	effect of a mutation on the interaction
F779A	disrupting interaction

Variants of: B2
Conditions: with sla1_yeast SLA1, P32790
Remark: another data set of the same source

Variant	effect of a mutation on the interaction
D781A	decreasing interaction

From IntAct's records for PubMed 17363896
